Measured values published in US20140134657.

T1: PvSUB1 peptide substrate KLVGADDVSLA, tagged with fluorophore and quencher
T1 chain: KLVGADDVSLA

T2: PfSUB1 peptide substrate KLVSADNIDIS, tagged with fluorophore and quencher
T2 chain: KLVSADNIDIS

B1: recombinant enzymatically active form of Plasmodium vivax SUB1-Belem (PvSUB1-Belem), following auto-maturation at the KLVGAD//DVSLA site (protein)
chain: DVSLASVKDAVRRGESSVNWGKLRSTMLEVPSGESPPSHAASSGSPFDDDDDLLSEAALHREEAHLAGSKTTKGYKFNDEYRNLQWGLDLARLDETQDLINANRVSVTKICVIDSGIDYNHPDLRNNIDVNVKELHGRKGVDDDSNGVVDDVYGANFVNNSGDPMDDNYHGTHVSGIISAVGNNGIGIVGVDGHSKLVICKALDQHKLGRLGDMFKCIDYCISRQAHMINGSFSFDEYSNIFNASVEHLRSLGILFFVSASNCAHDKLSKPDIAKCDLAVNHRYPPILSKTHNNVIAVANLKRDLDESYSLSVNSFYSNIYCQLAAPGTNIYSTTPMNNYRKLNGTSMASPHVAAIASIVRSINPNLTYLQIVEILRNAIVKLPSLTERVSWGGYVDILRAVNLAIDSKAAPYIKSHSWFRWKQGSRRHHHHHH
B2: recombinant Plasmodium falciparum SUB1 (PfSUB1) (protein)
chain: MLLVNQSHQGFNKEHTSKMVSAIVLYVLLAAAAHSAFAADLGSKEVRSEENGKIQDDAKKIVSELRFLEKVEDVIEKSNIGGNEVDADENSFNPDTEVPIEEIEEIKMRELKDVKEEKNKNDNHNNNNNNISSSSSSSSNTFGEEKEEVSKKKKKLRLIVSENHATTPSFFQESLLEPDVLSFLESKGNLSNLKNINSMIIELKEDTTDDELISYIKILEEKGALIESDKLVSADNIDISGIKDAIRRGEENIDVNDYKSMLEVENDAEDYDKMFGMFNESHAATSKRKRHSTNERGYDTFSSPSYKTYSKSDYLYDDDNNNNNYYYSHSSNGHNSSSRNSSSSRSRPGKYHFNDEFRNLQWGLDLSRLDETQELINEHQVMSTRICVIDSGIDYNHPDLKDNIELNLKELHGRKGFDDDNNGIVDDIYGANFVNNSGNPMDDNYHGTHVSGIISAIGNNNIGVVGVDVNSKLIICKALDEHKLGRLGDMFKCLDYCISRNAHMINGSFSFDEYSGIFNSSVEYLQRKGILFFVSASNCSHPKSSTPDIRKCDLSINAKYPPILSTVYDNVISVANLKKNDNNNHYSLSINSFYSNKYCQLAAPGTNIYSTAPHNSYRKLNGTSMAAPHVAAIASLIFSINPDLSYKKVIQILKDSIVYLPSLKNMVAWAGYADINKAVNLAIKSKKTYINSNISNKWKKKSRYLHHHHHH

Columns and labels:
[1] = target: T1, PvSUB1 peptide substrate KLVGADDVSLA, …
[2] = target: T2, PfSUB1 peptide substrate KLVSADNIDIS, …

Protein | apparent Km [1] | apparent Km [2]
B1 | 19.7 µM±1.7 | –
B2 | – | 30.2 µM±3.4
